Experimental data published in article PMC10239695.

How the values were obtained:
[1] = substrate: T1, BSSαγ complex (UniProt O68395)
T1 sequence 1: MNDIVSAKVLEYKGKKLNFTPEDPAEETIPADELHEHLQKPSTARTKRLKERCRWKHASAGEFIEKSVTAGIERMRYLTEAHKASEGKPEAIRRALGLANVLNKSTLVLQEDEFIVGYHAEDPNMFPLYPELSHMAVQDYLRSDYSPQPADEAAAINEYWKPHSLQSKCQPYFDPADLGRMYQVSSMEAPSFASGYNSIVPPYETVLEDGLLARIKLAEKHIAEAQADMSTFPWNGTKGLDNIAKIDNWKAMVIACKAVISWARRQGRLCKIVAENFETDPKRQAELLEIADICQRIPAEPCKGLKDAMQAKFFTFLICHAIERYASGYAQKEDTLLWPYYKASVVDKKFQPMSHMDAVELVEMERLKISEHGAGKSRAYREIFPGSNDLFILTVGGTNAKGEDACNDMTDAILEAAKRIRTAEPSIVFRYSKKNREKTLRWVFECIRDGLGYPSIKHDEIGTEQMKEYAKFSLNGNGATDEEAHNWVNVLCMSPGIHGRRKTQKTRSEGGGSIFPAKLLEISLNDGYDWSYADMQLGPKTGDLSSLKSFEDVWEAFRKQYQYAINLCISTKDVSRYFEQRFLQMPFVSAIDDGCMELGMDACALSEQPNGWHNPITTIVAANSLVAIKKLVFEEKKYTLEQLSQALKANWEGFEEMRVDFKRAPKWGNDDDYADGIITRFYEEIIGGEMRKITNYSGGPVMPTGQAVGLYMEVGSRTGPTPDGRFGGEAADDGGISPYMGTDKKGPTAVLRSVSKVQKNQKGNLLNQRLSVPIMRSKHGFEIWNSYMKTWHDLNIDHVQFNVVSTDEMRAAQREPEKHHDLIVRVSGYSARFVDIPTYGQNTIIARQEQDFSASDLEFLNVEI
T1 sequence 2: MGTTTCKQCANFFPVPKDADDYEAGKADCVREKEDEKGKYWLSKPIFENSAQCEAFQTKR

## 4-isopropylbenzylsuccinate synthase activating enzyme (IbsAE)
IBSSαγ complex
  AdoMet cleavage by as purified IbsAE with IBSSαγ added (dAdo by LCMS, 2 h endpoint, n = 3); 1.1 μM dAdo without IBSSαγ: 47.6 μM dAdo
  AdoMet cleavage by reconstituted IbsAE with IBSSαγ added (dAdo by LCMS, 2 h endpoint, n = 3); 1.4 μM dAdo without IBSSαγ: 46.7 μM dAdo

## 4-isopropylbenzylsuccinate synthase beta subunit (IBSSβ), affinity tag removed (from UniProt A0A096ZP03 1-73) (natural protein)
IBSSαγ complex
  AdoMet cleavage by as purified IbsAE with IBSSαγ and IBSSβ added (dAdo by LCMS, 2 h endpoint, n = 3); 47.6 μM dAdo without IBSSβ: 7.2 μM dAdo
  AdoMet cleavage by reconstituted IbsAE with IBSSαγ and IBSSβ added (dAdo by LCMS, 2 h endpoint, n = 3); 46.7 μM dAdo without IBSSβ: 5.4 μM dAdo

B1: Benzylsuccinate synthase beta subunit (BSSβ), affinity tag removed (natural protein)
chain: MEGSNMETGQNLQNQPHTEVGTARPCRSCKWQTPDPTDPHRGQCTANRHAMGGVWKRWLRDVENTTCSRHEEGKLSFRDHV
[1]
  benzylsuccinate formed from fumarate and toluene by activated BSSαγ (40 μM) with BSSβ (40 μM) added (assay yield by QToF-LCMS, n = 9); 0.7% without BSSβ (% assay yield): 92.3
